Holding throughout (test): EMSA
Data set [1] has as its target NS1 (89-237) effector domain;eIF4E;eIF4G1 (88-653) (Influenza A virus (H3N2);human;human, UniProt P03495;P06730;Q04637 89-237;1-217;88-653, ||).
In data set [2] the target is NS1 (89-237) effector domain (Influenza A virus (H3N2), UniProt P03495 89-237).
The target in data set [3] is eIF4E;eIF4G1 (88-653) (human;human, UniProt P06730;Q04637 1-217;88-653, |).
eIF4E;eIF4G1 (88-653), sequence (P06730 whole entry, chain 1 of 2): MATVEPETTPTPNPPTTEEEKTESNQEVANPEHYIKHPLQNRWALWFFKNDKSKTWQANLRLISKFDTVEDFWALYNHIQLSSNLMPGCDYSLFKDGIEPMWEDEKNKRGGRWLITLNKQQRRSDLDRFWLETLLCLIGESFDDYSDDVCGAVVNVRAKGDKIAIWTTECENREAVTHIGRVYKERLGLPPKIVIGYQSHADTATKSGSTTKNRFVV
eIF4E;eIF4G1 (88-653), sequence (Q04637 88-653, chain 2 of 2): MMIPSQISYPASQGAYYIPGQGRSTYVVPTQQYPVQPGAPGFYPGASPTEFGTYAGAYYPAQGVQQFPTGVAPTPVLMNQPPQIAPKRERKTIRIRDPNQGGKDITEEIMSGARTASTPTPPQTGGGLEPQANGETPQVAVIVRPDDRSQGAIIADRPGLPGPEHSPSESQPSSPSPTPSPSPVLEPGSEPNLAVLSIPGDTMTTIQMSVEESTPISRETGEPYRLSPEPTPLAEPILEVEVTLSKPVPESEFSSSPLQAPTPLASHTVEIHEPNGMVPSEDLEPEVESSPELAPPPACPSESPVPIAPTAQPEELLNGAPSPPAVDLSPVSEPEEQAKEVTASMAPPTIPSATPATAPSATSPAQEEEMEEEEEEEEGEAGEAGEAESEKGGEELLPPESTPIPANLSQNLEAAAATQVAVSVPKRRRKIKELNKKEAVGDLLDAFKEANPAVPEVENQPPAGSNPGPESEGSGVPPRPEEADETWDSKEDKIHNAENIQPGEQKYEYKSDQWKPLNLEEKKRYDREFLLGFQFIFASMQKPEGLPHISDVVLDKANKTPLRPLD

NS1 (89-237) effector domain, sequence (P03495 89-237): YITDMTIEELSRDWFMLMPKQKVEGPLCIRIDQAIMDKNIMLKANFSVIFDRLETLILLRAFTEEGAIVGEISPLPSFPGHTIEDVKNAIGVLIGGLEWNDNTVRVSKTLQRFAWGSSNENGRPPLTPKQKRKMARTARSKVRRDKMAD
NS1 (89-237) effector domain;eIF4E;eIF4G1 (88-653), sequence (P03495 89-237, chain 1 of 3): as the sequence (P03495 89-237) above
NS1 (89-237) effector domain;eIF4E;eIF4G1 (88-653), sequence (P06730 whole entry, chain 2 of 3, the tested form may be a part): as the sequence (P06730 whole entry, chain 1 of 2) above
NS1 (89-237) effector domain;eIF4E;eIF4G1 (88-653), sequence (Q04637 88-653, chain 3 of 3): as the sequence (Q04637 88-653, chain 2 of 2) above

Consider GGGUGACAGUCCUGUUU (ssRNA, 5' m7G cap (vaccinia capping)) [5'-m7G-mRNA], for which the binding result in data set [1] was “binds”; in data set [2], “no binding”; in data set [3], “binds”.

The values are drawn from PMC10164398.
